The record followed here is patent US20130330355A1 (APEXIGEN, published 2013).

In one assay the target is mouse IL-1β (mouse, UniProt P10749 118-269). Nature of the assay: cross-species reactivity assay, antibody titrated on IL-1β of each species, readout OD405nm.
In assay [1] the target is T1, recombinant human IL-1β (human, UniProt P01584 117-269).
T1 construct: The assays (SPR, TF-1 proliferation) say only 'IL-1β'; also called hIL-1β
Described as above.

The next assay deals with monkey IL-1β (monkey). The description is as above.
Chain of monkey IL-1β (monkey) (P48090 117-269): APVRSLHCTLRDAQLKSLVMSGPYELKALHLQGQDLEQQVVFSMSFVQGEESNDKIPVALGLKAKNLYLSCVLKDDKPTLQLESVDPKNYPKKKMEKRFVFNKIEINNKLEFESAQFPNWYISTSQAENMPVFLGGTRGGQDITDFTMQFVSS
Assay [2] concerns the target T1, recombinant human IL-1β. Nature of the assay: method not given.
The target of assay [3] is T1, recombinant human IL-1β. Nature of the assay: cell-based or functional assay.
Assay [4] deals with T1, recombinant human IL-1β. Briefly: SPR. The protocol: Antigen binding affinities of anti-IL-1β antibodies were measured by surface Plasmon resonance (SPR).

Chain of mouse IL-1β (P10749 118-269 limits assumed): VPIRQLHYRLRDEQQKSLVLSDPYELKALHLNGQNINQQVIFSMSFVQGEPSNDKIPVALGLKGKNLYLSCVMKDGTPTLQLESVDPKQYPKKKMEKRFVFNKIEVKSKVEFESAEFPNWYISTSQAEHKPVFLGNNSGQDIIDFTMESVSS

B1: APX002 (humanized Q26) (antibody, V domains shown)
VH: EVQLVESGGGLVQPGGSLRLSCAVSGFSLDVYTMTWVRQAPGKGLEWIGYIWSGGSASYASWAKGRFTISKDSSKNTVYLQINSLRAEDTAVYFCARVKMISNIETFDPWGPGTLVTVSS
VL: DIQMTQSPSSVSASVGDRVTIKCQASERIYSGLAWYQQKPGKRPKLLIYRASTLASGVPSRFSGSGSGTDFTLTISSLQPEDFATYYCQQGVSSSDIDNVFGGGTKVEIK
In the case of B1, the binding result in the assay with mouse IL-1β was “no binding (tested: 10 ug/ml)”. Besides, the “EC50 (read off the curve)” value with recombinant human IL-1β [1] and with monkey IL-1β was approximately 600 ng/mL in each case. Moreover, the equilibrium dissociation constant (Kd) (as a rule, a measure of binding affinity in units of concentration) with recombinant human IL-1β [2] is 0.199 nM.

B2: Q17 rabbit anti-IL-1β antibody (antibody, V domains shown)
VH: QSVEESGGRLVTPGTPLILTCTVSGFSLDVYTVTWVRQAPGKGLEWIGYIWSGGSASYASWAKGRFTISKTSTTVDLKISSPTTEDTATYFCARVKMISNIETFDPWGPGTLVTVSS
VL: AYDMTQTPASVEVVVGGTVTIKCQASERIYSGLAWYQQKPGQRPKLLIYRASTLASGVPSRFSGSGSGTEFTLTISDLECADAATYYCHQGVSSSDIDNVFGGGTEVVVK
For the molecule B2, the “IC 50, neutralization of IL-1β-induced TF-1 cell proliferation” value (from here on “IC 50, neutralization”) with recombinant human IL-1β [3] worked out at 1.13 ng/mL.

B3: Q34 rabbit anti-IL-1β antibody (antibody, V domains shown)
VH: QSVEESGGRLVTPGTPLILTCTVSGFSLDVYTVTWVRQAPGKGLEWIGYIWSGGSASYASWAKGRFTISKTSTTVDLKISSPTTEDTATYFCARVKMISNIETFDPWGPGTLVTVSS
VL: AYDMTQTPASVEVVVGGTVTIKCQASERIYSGLAWYQQKPGQRPKLLIYRASTLASGVPSRFSGSGSGTEFTLTISDLECADAATYYCHQGVSSSDIDNVFGGGTEVVVK
For B3, the “IC 50, neutralization” value with recombinant human IL-1β [3] turned out to be 0.55 ng/mL.

B4: clone Q26 rabbit anti-IL-1β antibody (antibody, V domains shown)
VH: QSVEESGGRLVTPGTPLILTCTVSGFSLDVYTVTWVRQAPGKGLEWIGYIWSGGSASYASWAKGRFTISKTSTTVDLKISSPTTEDTATYFCARVKMISNIETFDPWGPGTLVTVSS
VL: AYDMTQTPASVEVVVGGTVTIKCQASERIYSGLAWYQQKPGQRPKLLIYRASTLASGVPSRFSGSGSGTEFTLTISDLECADAATYYCHQGVSSSDIDNVFGGGTEVVVK
notes: Recombinant rabbit IgG expressed in 293-6E cells; the rabbit constant regions are not; also called parental rabbit Q26
In the case of B4, the “IC 50, neutralization” value in the assay with recombinant human IL-1β [3] stood at 0.54 ng/mL. Besides, in the assay with recombinant human IL-1β [4], the Kd stood at 0.199 nM; the koff (in general, a measure of how fast the partners let go of each other) amounted to 3.8e-05 s⁻¹; the kon (as a rule, the second-order rate constant of association) was 191000 M⁻¹ s⁻¹.
